This is an account of results in patent US20140010817A1 (Daiichi Sankyo, published 2014).

The target of experiment [1] is T1, RX protein purified from the culture supernatant of ADSF cells (murine mammary tumor virus (MMTV) …, UniProt P03374 99-474; P03374 475-651).
T1 construct: also called purified RX protein; ADSF cell-derived RX protein
In words: SPR (ProteOn XPR36), humanized MAb1 captured on immobilised Protein A/G, RX protein as analyte.
Description: Specifically, a Protein A-Protein G fusion protein Protein A/G (Thermo Fisher Scientific K.K.) was immobilized on the GLM sensor chip of ProteOn XPR36 (Bio-Rad Laboratories, Inc.) by the amine coupling method. […] The dissociation constant, i.e., binding affinity, was calculated from the ratio therebetween.

Experiment [2] concerns the target T1, RX protein purified from the culture …. In words: SPR (ProteOn XPR36), antibody immobilized by amine coupling, RX protein as analyte.
Excerpt: (§1) Each antibody was immobilized on a sensor chip (Sensor Chip GLM; Bio-Rad Laboratories, Inc.) by the amine coupling method. The chip was blocked by the addition of 1 M ethanolamine hydrochloride (pH 8.5). ProteOn PBS/Tween, pH 7.4 (PBS, pH 7.4, 0.005% Tween 20) was used as a running buffer solution. The purified RX protein was serially diluted and interacted as an analyte with the immobilized monoclonal antibody to determine the binding affinity. The association rate constant ka and the dissociation rate constant kd were calculated by kinetics analysis using ProteOn Manager™.
Experiment [3] has the same target. In words: SPR (ProteOn XPR36), antibody immobilised by amine coupling on a GLM chip, purified RX protein as analyte.
Excerpt: as §1

B1: humanized antibody T14 (antibody, V domains shown)
VH: EVQLVESGGGLVQPGRSLRLSCAASGFTFSDYYMAWVRQAPGKGLEWVASISYEGSNTNFGDSVKGRFTISRDSSKNTLYLKMNSLRAEDTAVYYCARWAQTGYYFDYWGQGTLVTVSS
VL: DIQMTQSPSSLSASVGDRVTITCLASEDIYSNLAWYQQKPGKSPKLLIYYANSLNDGVPSRFSGSGSGTDFTLTISRLQPEDFATYYCQQNYDSPYTFGQGTKVEIKR
notes: also called humanized MAb1 (H5/L2)
In experiment [1], B1 showed a Kd of 190 pM.

B2: humanized antibody T2 (antibody, V domains shown)
VH: EVQLVESGGGLVQPGRSLRLSCAASGFTFSDYYMAWVRQAPGKGLEWVSSISYEGSNTNFGDSVKGRFTISRDNSKNTLYLKMNSLRAEDTAVYYCARWAQTGYYFDYWGQGTLVTVSS
VL: DIQMTQSPSSLSASVGDRVTITCLASEDIYSNLAWYQQKPGKSPKLLIYYANSLNDGVPSRFSGSGSGTDFTLTISRLQPEDFATYYCQQNYDSPYTFGQGTKVEIKR
notes: also called humanized MAb1 (H1/L2)
B2 displayed a Kd in experiment [1] of 1900 pM.

B3: humanized antibody T6 (antibody, V domains shown)
VH: EVQLVESGGGLVQPGRSLRLSCAASGFTFSDYYMAWVRQAPGKGLEWVASISYEGSNTNFGDSVKGRFTISRDNSKNTLYLKMNSLRAEDTAVYYCARWAQTGYYFDYWGQGTLVTVSS
VL: DIQMTQSPSSLSASVGDRVTITCLASEDIYSNLAWYQQKPGKSPQLLIYYANSLNDGVPSRFSGSGSGTDFTLTISRLQPEDFATYFCQQNYDSPYTFGQGTKVEIKR
notes: also called humanized MAb1 (H2/L3)
Consider B3, for which the Kd in experiment [1] is 2000 pM. This Kd and that of the molecule before are within 1.5-fold of each other.

B4: humanized antibody T16 (antibody, V domains shown)
VH: EVQLVESGGGLVQPGRSLRLSCAGSGFTFSDYYMAWVRQAPGKGLEWVASISYEGSNTNFGDSVKGRFTISRDNSKNTLYLKMNSLRAEDTAVYYCARWAQTGYYFDYWGQGTLVTVSS
VL: DIQMTQSPSSLSASVGDRVTITCLASEDIYSNLAWYQQKPGKSPKLLIYYANSLNDGVPSRFSGSGSGTDFTLTISRLQPEDFATYYCQQNYDSPYTFGQGTKVEIKR
notes: also called humanized MAb1 (H6/L2)
B4 registered a Kd in experiment [1] of 1900 pM.

B5: humanized antibody T12 (antibody, V domains shown)
VH: EVQLVESGGGLVQPGRSLRLSCAGSGFTFSDYYMAWVRQAPGKGLEWVASISYEGSNTNFGDSVKGRFTISRDSAKNTLYLKMNSLRAEDTAVYYCARWAQTGYYFDYWGQGTLVTVSS
VL: DIQMTQSPSSLSASVGDRVTITCLASEDIYSNLAWYQQKPGKSPQLLIYYANSLNDGVPSRFSGSGSGTDFTLTISRLQPEDFATYFCQQNYDSPYTFGQGTKLEIKR
notes: also called humanized MAb1 (H4/L4)
The molecule B5 came in with a Kd in experiment [1] of 320 pM.

B6: humanized antibody T4 (antibody, V domains shown)
VH: EVQLVESGGGLVQPGRSLRLSCAASGFTFSDYYMAWVRQAPGKGLEWVASISYEGSNTNFGDSVKGRFTISRDNSKNTLYLKMNSLRAEDTAVYYCARWAQTGYYFDYWGQGTLVTVSS
VL: DIQMTQSPSSLSASVGDRVTITCLASEDIYSNLAWYQQKPGKAPKLLIYYANSLNDGVPSRFSGSGSGTDFTLTISRLQPEDFATYYCQQNYDSPYTFGQGTKVEIKR
notes: also called humanized MAb1 (H2/L1)
In the case of B6, the Kd in experiment [1] was 2000 pM.

B7: humanized antibody T9 (antibody, V domains shown)
VH: EVQLVESGGGLVQPGRSLRLSCAGSGFTFSDYYMAWVRQAPGKGLEWVASISYEGSNTNFGDSVKGRFTISRDSSKNTLYLKMNSLRAEDTAVYYCARWAQTGYYFDYWGQGTLVTVSS
VL: DIQMTQSPSSLSASVGDRVTITCLASEDIYSNLAWYQQKPGKSPKLLIYYANSLNDGVPSRFSGSGSGTDFTLTISRLQPEDFATYYCQQNYDSPYTFGQGTKVEIKR
notes: also called humanized MAb1 (H3/L2)
With B7, in experiment [1], binding was put at a Kd of 250 pM.

B8: humanized antibody T18 (antibody, V domains shown)
VH: EVQLVESGGGLVQPGRSLRLSCAGSGFTFSDYYMAWVRQAPGKGLEWVASISYEGSNTNFGDSVKGRFTISRDSSKNTLYLQMNSLRAEDTAVYYCARWAQTGYYFDYWGQGTLVTVSS
VL: DIQMTQSPSSLSASVGDRVTITCLASEDIYSNLAWYQQKPGKSPKLLIYYANSLNDGVPSRFSGSGSGTDFTLTISRLQPEDFATYYCQQNYDSPYTFGQGTKVEIKR
notes: also called humanized MAb1 (H7/L2)
In experiment [1], B8 showed a Kd of 220 pM.

B9: humanized antibody T1 (antibody, V domains shown)
VH: EVQLVESGGGLVQPGRSLRLSCAASGFTFSDYYMAWVRQAPGKGLEWVSSISYEGSNTNFGDSVKGRFTISRDNSKNTLYLKMNSLRAEDTAVYYCARWAQTGYYFDYWGQGTLVTVSS
VL: DIQMTQSPSSLSASVGDRVTITCLASEDIYSNLAWYQQKPGKAPKLLIYYANSLNDGVPSRFSGSGSGTDFTLTISRLQPEDFATYYCQQNYDSPYTFGQGTKVEIKR
notes: also called humanized MAb1 (H1/L1)
B9 registered a Kd in experiment [1] of 2500 pM.

B10: humanized antibody T19 (antibody)
heavy: not shown
light: DIQMTQSPSSLSASVGDRVTITCLASEDIYSNLAWYQQKPGKAPKLLIYYANSLNDGVPSRFSGSGSGTDFTLTISRLQPEDFATYYCQQNYDSPYTFGQGTKVEIKRTVAAPSVFIFPPSDEQLKSGTASVVCLLNNFYPREAKVQWKVDNALQSGNSQESVTEQDSKDSTYSLSSTLTLSKADYEKHKVYACEVTHQGLSSPVTKSFNRGEC
notes: also called humanized MAb1 (H8/L1)
With B10, in experiment [1], binding was characterised by a dissociation constant (Kd) of 690 pM.

B11: humanized antibody T10 (antibody, V domains shown)
VH: EVQLVESGGGLVQPGRSLRLSCAGSGFTFSDYYMAWVRQAPGKGLEWVASISYEGSNTNFGDSVKGRFTISRDSSKNTLYLKMNSLRAEDTAVYYCARWAQTGYYFDYWGQGTLVTVSS
VL: DIQMTQSPSSLSASVGDRVTITCLASEDIYSNLAWYQQKPGKSPQLLIYYANSLNDGVPSRFSGSGSGTDFTLTISRLQPEDFATYFCQQNYDSPYTFGQGTKVEIKR
notes: also called humanized MAb1 (H3/L3)
On to B11, for which binding in experiment [1] was characterised by a dissociation constant (Kd) of 470 pM.

B12: humanized antibody T8 (antibody, V domains shown)
VH: EVQLVESGGGLVQPGRSLRLSCAGSGFTFSDYYMAWVRQAPGKGLEWVASISYEGSNTNFGDSVKGRFTISRDSSKNTLYLKMNSLRAEDTAVYYCARWAQTGYYFDYWGQGTLVTVSS
VL: DIQMTQSPSSLSASVGDRVTITCLASEDIYSNLAWYQQKPGKAPKLLIYYANSLNDGVPSRFSGSGSGTDFTLTISRLQPEDFATYYCQQNYDSPYTFGQGTKVEIKR
notes: also called humanized MAb1 (H3/L1)
Molecule B12 yielded a Kd in experiment [1] of 170 pM.

B13: humanized antibody T21 (antibody)
heavy: not shown
light: DIQMTQSPSSLSASVGDRVTITCLASEDIYSNLAWYQQKPGKAPKLLIYYANSLNDGVPSRFSGSGSGTDFTLTISRLQPEDFATYYCQQNYDSPYTFGQGTKVEIKRTVAAPSVFIFPPSDEQLKSGTASVVCLLNNFYPREAKVQWKVDNALQSGNSQESVTEQDSKDSTYSLSSTLTLSKADYEKHKVYACEVTHQGLSSPVTKSFNRGEC
notes: also called humanized MAb1 (H10/L1)
Turning to B13, binding in experiment [1] was characterised by a dissociation constant (Kd) of 420 pM.

B14: humanized antibody T17 (antibody, V domains shown)
VH: EVQLVESGGGLVQPGRSLRLSCAGSGFTFSDYYMAWVRQAPGKGLEWVASISYEGSNTNFGDSVKGRFTISRDNSKNTLYLKMNSLRAEDTAVYYCARWAQTGYYFDYWGQGTLVTVSS
VL: DIQMTQSPSSLSASVGDRVTITCLASEDIYSNLAWYQQKPGKSPKLLIYYANSLNDGVPSRFSGSGSGTDFTLTISSLQPEDFATYYCQQNYDSPYTFGQGTKVEIKR
notes: also called humanized MAb1 (H6/L5)
Regarding B14, in experiment [1], the Kd turned out to be 2000 pM. Against the preceding molecule, the Kd is about 4.8-fold higher.

B15: humanized antibody T15 (antibody, V domains shown)
VH: EVQLVESGGGLVQPGRSLRLSCAASGFTFSDYYMAWVRQAPGKGLEWVASISYEGSNTNFGDSVKGRFTISRDSSKNTLYLKMNSLRAEDTAVYYCARWAQTGYYFDYWGQGTLVTVSS
VL: DIQMTQSPSSLSASVGDRVTITCLASEDIYSNLAWYQQKPGKSPKLLIYYANSLNDGVPSRFSGSGSGTDFTLTISSLQPEDFATYYCQQNYDSPYTFGQGTKVEIKR
notes: also called humanized MAb1 (H5/L5)
The molecule B15 gave a Kd in experiment [1] of 260 pM.

B16: humanized antibody T11 (antibody, V domains shown)
VH: EVQLVESGGGLVQPGRSLRLSCAGSGFTFSDYYMAWVRQAPGKGLEWVASISYEGSNTNFGDSVKGRFTISRDSSKNTLYLKMNSLRAEDTAVYYCARWAQTGYYFDYWGQGTLVTVSS
VL: DIQMTQSPSSLSASVGDRVTITCLASEDIYSNLAWYQQKPGKSPKLLIYYANSLNDGVPSRFSGSGSGTDFTLTISSLQPEDFATYYCQQNYDSPYTFGQGTKVEIKR
notes: also called humanized MAb1 (H3/L5)
Regarding B16, binding in experiment [1] was characterised by a dissociation constant (Kd) of 370 pM.

B17: humanized antibody T3 (antibody, V domains shown)
VH: EVQLVESGGGLVQPGRSLRLSCAASGFTFSDYYMAWVRQAPGKGLEWVSSISYEGSNTNFGDSVKGRFTISRDNSKNTLYLKMNSLRAEDTAVYYCARWAQTGYYFDYWGQGTLVTVSS
VL: DIQMTQSPSSLSASVGDRVTITCLASEDIYSNLAWYQQKPGKSPQLLIYYANSLNDGVPSRFSGSGSGTDFTLTISRLQPEDFATYFCQQNYDSPYTFGQGTKVEIKR
notes: also called humanized MAb1 (H1/L3)
On to B17, for which the affinity in experiment [1], expressed as Kd, was 2500 pM.

B18: Monoclonal Antibody 3 (MAb3) (antibody, V domains shown)
VH: QVKLEESGGGLVKPGGSLKLSCAASGFSFSRNVMSWVRQTPEKRLEWVATISAGGSYTYYPDSVKGRFTISRDNAKNTLYLQMSSLRSEDTAMYYCARLNYNDNGNYFDYWGQGTTLTVSS
VL: DIVMTQSTAIMSASLGEKVTMSCRASSSVVYMYWYQQKSDASPKLWIYYTSNLAPGVPARFSGSGSGNSYSLTISSMEGEDAATYYCQQFTSSPYTFGGGTKLEIKR
In turn, B18 registered a Kd in experiment [2] of about 100 pM. In experiment [3], the Kd is 620 pM, the koff stood at 0.0017 s⁻¹ and the association rate constant (kon) worked out at 2.8e+06 M⁻¹ s⁻¹.

B19: Monoclonal Antibody 1 (MAb1) (antibody)
heavy: EVQLVESGGGLVQPGRSLKLSCVGSGFTFSDYYMAWVRQAPKKGLEWVASISYEGSNTNFGDSVKGRFTISRDSAKSTLYLQMNSLRSEDTATYYCARWAQTGYYFDYWGQGVMVTVSSAETTAPSVYPLAPGTALKSNSMVTLGCLVKGYFPEPVTVTWNSGALSSGVHTFPAVLQSGLYTLTSSVTVPSSTWSSQAVTCNVAHPASSTKVDKKIVPRECNPCGCTGSEVSSVFIFPPKTKDVLTITLTPKVTCVVVDISQNDPEVRFSWFIDDVEVHTAQTHAPEKQSNSTLRSVSELPIVHRDWLNGKTFKCKVNSGAFPAPIEKSISKPEGTPRGPQVYTMAPPKEEMTQSQVSITCMVKGFYPPDIYTEWKMNGQPQENYKNTPPTMDTDGSYFLYSKLNVKKETWQQGNTFTCSVLHEGLHNHHTEKSLSHSPGK
light: DIQMTQSPASLSASLGETVTIECLASEDIYSNLAWYQQKPGKSPQLLIYYANSLNDGVPSRFSGSGSGTQFSLKINSLQSEDVSIYFCQQNYDSPYTFGAGAKLELKRADAAPTVSIFPPSTKQLATGGASVVCLMNNFYPRDISVKWKIDGTERRDGVLDSVTDQDSKDSTYSMSSTLSLTKADYESHNLYTCEVVHKTSSSPVVKSFNRNEC
notes: also called rat antibody MAb1; recombinant MAb1
For B19, the Kd in experiment [2] is about 100 pM; in experiment [3], 160 pM.
